Test results reported in patent publication US6518397B1, “Pharmaceuticals for modulating hormone responsiveness” (priority 1995, dated 2003).

T1: DNA binding domain of recombinant rat androgen receptor (AR) / calreticulin (p60) (Homo sapiens, UniProt P27797)
T1 construct: endogenous in cells
T1 sequence (P27797 18-417): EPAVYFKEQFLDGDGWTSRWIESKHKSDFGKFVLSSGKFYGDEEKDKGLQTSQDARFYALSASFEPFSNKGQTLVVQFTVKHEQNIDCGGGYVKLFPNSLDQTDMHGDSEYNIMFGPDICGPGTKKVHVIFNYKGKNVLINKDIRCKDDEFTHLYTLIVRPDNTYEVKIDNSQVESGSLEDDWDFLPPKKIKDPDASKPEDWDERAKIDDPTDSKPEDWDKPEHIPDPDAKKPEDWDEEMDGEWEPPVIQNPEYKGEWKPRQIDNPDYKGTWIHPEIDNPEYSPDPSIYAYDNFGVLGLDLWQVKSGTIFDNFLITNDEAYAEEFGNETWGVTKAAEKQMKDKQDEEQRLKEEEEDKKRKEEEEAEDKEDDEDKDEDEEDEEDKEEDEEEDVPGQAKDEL

B1: p60 (calreticulin): 60 kDa protein, calreticulin, purified by affinity chromatography on KLGFFKR-sepharose (protein)
chain: T1 sequence (P27797 18-417)

Tests used:
[1] = tested on: calreticulin mRNA in MC3T3 cells; assay: Calreticulin mRNA levels in MC3T3 cells; format: cell-based, mouse
Protocol: Calreticulin expression levels in these cell types are determined at the outset by Western blot analysis. In addition to utilizing these stable expression vectors, we construct inducible calreticulin expression sense- and antisense-cDNA expression vectors driven by strong metal inducible promoters (Filmus et al., 1992). The inducible vectors allow us to turn calreticulin expression on or off at will. In the MC3T3 cells, 1,25,dihydroxyvitamin D3 has a proliferative effect on these cells at subconfluency, but when added to confluent, mineralizing cultures, it enhances the mineralization process. The transfected cells are analyzed for the level of calreticulin expression by Western blot analysis as described by us previously as well as by Northern blot analysis for mRNA levels. The effect of up or down regulation of calreticulin is determined in terms of the above mentioned responses to 1,25 dihydroxyvitamin D3. In addition, the effect on the expression of vitamin D responsive genes, such as c-fos and integrin b3 subunit (Xu et al., 1993) is determined by Northern blot and Western blot analysis. […] The luciferase activity in mock transfected versus calreticulin sense- and antisense-cDNA transfected cells (stable and inducible) is then be determined as described by us previously (see Example 6). […]

[2] = biological target: T1, DNA binding domain of recombinant rat androgen receptor (AR) / calreticulin (p60); assay: Gel mobility shift (gel retardation) assay: calreticulin (p60) inhibition of AR-ARE binding and its reversal by peptides/antibody; details: protein pre-incubated with AR 30 min at 4° C.
Protocol: To determine whether p60 (calreticulin) could directly modulate the binding of nuclear hormone receptors to DNA via the KXFFX^1R [SEQ ID NO:1] sequence, the interaction of the DNA binding domain of recombinant androgen receptor with its hormone responsive element was analyzed by carrying out gel mobility shift assays.
As described in Rennie et al., 1993, DNA binding domain of recombinant rat androgen receptor was prepared as a GST-fusion protein using the pGEX-3X vector and purified by glutathione-agarose affinity chromatography. p60 (calreticulin) was purified by affinity chromatography on KLGFFKR-sepharose [SEQ ID NO:7], followed by gel electrophoresis as described in detail in Rojiani et al., 1991. […] Recombinant calreticulin (GST-fusion protein) was prepared as described by Baksh and Michalak, 1991. Gel retardation assays were carried out as described by Rennie et al., 1993. To analyze the effect of p60, or recombinant calreticulin, on receptor-DNA binding activity, the AR was pre-incubated with p60 for 30 min at 4° C. To analyze the effects of synthetic peptides, anti-calreticulin antibody, and non-immune IgG on p60 inhibition of AR-ARE binding, the peptide, antibody or IgG were pre-incubated with p60 for 30 min at 4° C. The androgen receptor preparation was then added to these mixtures and further incubated for 30 min at 4° C.
Affinity purified DNA binding domain of the recombinant rat androgen receptor (AR) was pre-incubated with or without the indicated concentrations of purified p60 at 4° C. for 30 min. After this pre-incubation the reaction mixtures were incubated with ^32P-labeled 26 base pair ARE (Rennie et al., 1993) (androgen response element), and analyzed by gel retardation assay. The sequence of the ARE used was [SEQ ID NO:28]:
Amino acids in the KXFFX^1R [SEQ ID NO: 1] sequence were modified. Androgen receptor and calreticulin were incubated in the presence of the modified peptides and allowed to interact with an oligonucleotide containing the androgen response element (the method of this assay is described in Example 3). The interaction was analyzed by gel mobility shaft assay (FIGS. 5A-5C).

[3] = tested on: AP-1; assay: Binding of AP-1 to DNA

Molecule | Calreticulin mRNA levels [1] | Effect of protein on AR-ARE (receptor-DNA) complex formation [2] | Effect on binding of AP-1 to DNA [3]
C=C1/C(=C\C=C2/CCC[C@]3(C)[C@@H]([C@H](C)CCCC(C)(C)O)CC[C@@H]23)C[C@@H](O)C[C@@H]1O [1,25,dihydroxyvitamin D3] | upregulates calreticulin mRNA levels |  | 
B1 |  | dose-dependent inhibition in the formation of this complex | did not effect the binding of AP-1 to DNA
